Measurements: patent publication EP2500357A2 (Abbott Laboratories, dated 2012)

Tests used:
[1] = target: T1, human IL-12 (human, UniProt P29459 23-219; P29460 23-328); experiment: cell-based or functional assay
T1 sequence (looked up) 1: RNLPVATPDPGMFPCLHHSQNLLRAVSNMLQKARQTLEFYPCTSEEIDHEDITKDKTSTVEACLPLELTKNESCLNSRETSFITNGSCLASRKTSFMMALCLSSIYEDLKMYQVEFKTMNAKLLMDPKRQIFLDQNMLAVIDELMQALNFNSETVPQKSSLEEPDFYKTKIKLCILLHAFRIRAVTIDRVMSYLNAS
T1 sequence (looked up) 2: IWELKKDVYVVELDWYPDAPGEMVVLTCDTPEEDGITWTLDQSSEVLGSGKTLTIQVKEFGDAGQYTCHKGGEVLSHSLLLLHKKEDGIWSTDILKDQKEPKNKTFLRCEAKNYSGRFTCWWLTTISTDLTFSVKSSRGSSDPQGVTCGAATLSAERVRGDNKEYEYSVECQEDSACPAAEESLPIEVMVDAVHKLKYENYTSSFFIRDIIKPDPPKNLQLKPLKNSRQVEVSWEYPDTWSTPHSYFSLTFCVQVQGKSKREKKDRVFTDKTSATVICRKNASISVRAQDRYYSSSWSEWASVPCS

[2] = target: T2, recombinant human IL-1α (human, UniProt P01583 113-271); experiment: cell-based or functional assay
T2 sequence (looked up): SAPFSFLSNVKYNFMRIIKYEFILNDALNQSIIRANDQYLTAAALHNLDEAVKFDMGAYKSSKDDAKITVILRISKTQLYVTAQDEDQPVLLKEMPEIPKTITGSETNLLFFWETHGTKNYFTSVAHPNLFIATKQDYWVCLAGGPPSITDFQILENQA

[3] = target: T3, recombinant human IL-1β (human, UniProt P01584 117-269); experiment: cell-based or functional assay
[4] = target: T3, recombinant human IL-1β; experiment: SPR (Biacore), hIL-1β as 1st antigen
[5] = target: T2, recombinant human IL-1α; experiment: SPR (Biacore), hIL-1α as 1st antigen
[6] = target: T2, recombinant human IL-1α; experiment: SPR (Biacore), hIL-1α as 2nd antigen
[7] = target: T3, recombinant human IL-1β; experiment: SPR (Biacore), hIL-1β as 2nd antigen
[8] = target: T2, recombinant human IL-1α; experiment: cell-based or functional assay; remark: listed apart in the source
[9] = target: T3, recombinant human IL-1β; experiment: cell-based or functional assay; remark: listed apart in the source
[10] = target: T3, recombinant human IL-1β; experiment: cell-based or functional assay; remark: listed apart in the source
[11] = target: T3, recombinant human IL-1β; experiment: cell-based or functional assay; remark: listed apart in the source
[12] = target: T1, human IL-12; experiment: cell-based or functional assay; remark: listed apart in the source
[13] = target: T4, human IL-18 (human, UniProt Q14116 37-193); experiment: cell-based or functional assay
[14] = target: T5, mouse IL-1α (mouse, UniProt P01582 115-270); experiment: cell-based or functional assay
T5 sequence (looked up): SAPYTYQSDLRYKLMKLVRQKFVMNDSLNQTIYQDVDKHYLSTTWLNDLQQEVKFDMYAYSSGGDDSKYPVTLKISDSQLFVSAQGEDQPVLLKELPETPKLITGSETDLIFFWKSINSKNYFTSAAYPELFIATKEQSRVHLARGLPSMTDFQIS

[15] = target: T4, human IL-18; experiment: cell-based or functional assay; remark: listed apart in the source
[16] = target: mouse IL-1β (mouse, UniProt P10749 118-269); experiment: cell-based or functional assay
mouse IL-1β, sequence (P10749 118-269 limits assumed): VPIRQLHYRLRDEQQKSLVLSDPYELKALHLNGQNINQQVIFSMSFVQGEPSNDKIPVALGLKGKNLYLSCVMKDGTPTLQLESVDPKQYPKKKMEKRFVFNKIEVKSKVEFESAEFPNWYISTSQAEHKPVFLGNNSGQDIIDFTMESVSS

B1: anti-IL-12 mAb 1D4.1 (antibody, V domains shown)
VH: EVTLRESGPALVKPTQTLTLTCTFSGFSLSKSVMGVSWIRQPPGKALEWLAHIYWDDDKYYNPSLKSRLTISKDTSKNQVVLTMTNMDPVDTATYYCARRGIRSAMDYWGQGTTVTVSS
VL: DIVMTQSPDSLAVSLGERATINCKASQSVSNDVAWYQQKPGQPPKLLIYYASNRYTGVPDRFSGSGSGTDFTLTISSLQAEDVAVYYCQQDYNSPWTFGGGTKVEIKR
**Q.** For B1, which “Potency (IC50), PBMC assay (IL-12)” value [1] is on record?
**A.** 0.418 nM

B2: hIL-1a/bDVD1-Ig (bispecific antibody, human IgG1, kappa)
heavy: not shown
light: NIVLTQSPASLAVSLGQRATISCRASESVDSYGNSYMHWYQQKPGQPPKLLIYLASNLESGVPARFSGSGSRTDFTLTIDPVEADDAATYYCQQNNEDPFTFGSGTKLEIKRNIQMTQTTSSLSASLGDRVTISCRASQDISNCLNWYQQKPDGTVKLLIYYTSRLHSGVPSRFSGSGSGTDYSLTISNLEQEDIATYFCQQGKTLPYAFGGGTKLEINRTVAAPSVFIFPPSDEQLKSGTASVVCLLNNFYPREAKVQWKVDNALQSGNSQESVTEQDSKDSTYSLSSTLTLSKADYEKHKVYACEVTHQGLSSPVTKSFNRGEC
notes: No linker between the variable domains; also called hIL-1α/βDVD1-Ig
**Q.** How did the “dual-inhibition activity, IL-8 synthesis by MRC-5 cells with both IL-1α and IL-1β present” value [2] turn out when B2 was run?
**A.** 2.2 nM

**Q.** And the “neutralizing activity against hIL-1α relative to the chimeric Abs” value [2]?
**A.** 3 fold

**Q.** What about the “dual-inhibition activity, IL-8 synthesis by MRC-5 cells with both IL-1α and IL-1β present” value [3] of the same binder?
**A.** 2.2 nM

**Q.** What about the “Stoichiometry hIL-1β:DVD-Ig” value [4] of the same binder?
**A.** 1.5

**Q.** And the “Stoichiometry hIL-1α:DVD-Ig” value [5]?
**A.** 2.3

**Q.** What about the “Stoichiometry hIL-1α:DVD-Ig” value [6] of the same binder?
**A.** 1.1

**Q.** And the “Stoichiometry hIL-1β:DVD-Ig” value [7]?
**A.** 1

**Q.** And the “Potency (IC50), MRC-5 bioassay” value [8]?
**A.** 2.3 nM

**Q.** What about the “Potency (IC50), MRC-5 bioassay” value [9] of the same binder?
**A.** 3.1 nM

B3: murine anti-hIL-1β mAb 6B12.4F6 (antibody, V domains shown)
VH: EVQLQQSGPELVKTGTSVKISCKASGYSFTGYYMHWVRQSHGKSLEWIGYISCYNGFTSYNPKFKGKATFTVDTSSSTAYIQFSRLTSEDSAVYYCARSDYYGTNDYWGQGTTLTVSS
VL: QIVLTQSPAIMSASPGEKVTITCSASSSVSYMHWFQQKPGASPKLWIYSTSNLASGVPARFSGSGSGTSYSLTVSRMEAEDAATYYCQQRSTYPYTFGGGTKLEIKR
**Q.** Which results are given for B3?
**A.** IC50, MRC-5 bioassay [10]: 0.4 nM; IC50, inhibition of IL-8 production by MRC-5 cells [11]: 0.32 nM

B4: ABT874 (anti-human IL-12p40 mAb) (antibody, V domains shown)
VH: QVQLVESGGGVVQPGRSLRLSCAASGFTFSSYGMHWVRQAPGKGLEWVAFIRYDGSNKYYADSVKGRFTISRDNSKNTLYLQMNSLRAEDTAVYYCKTHGSHDNWGQGTMVTVSS
VL: QSVLTQPPSVSGAPGQRVTISCSGSRSNIGSNTVKWYQQLPGTAPKLLIYYNDQRPSGVPDRFSGSKSGTSASLAITGLQAEDEADYYCQSYDRYTHPALLFGTGTKVTVLG
**Q.** B4 was tested. Which “IC50, IL-12-induced IFN-γ production by PHA blast cells” value [12] did it give?
**A.** 0.005 nM

B5: DVD1812SL (anti-IL12/IL18 DVD-Ig) (bispecific antibody, human IgG1, kappa)
heavy: not shown
light: EIVMTQSPATLSVSPGERATLSCRASESISSNLAWYQQKPGQAPRLFIYTASTRATDIPARFSGSGSGTEFTLTISSLQSEDFAVYYCQQYNNWPSITFGQGTRLEIKRTVAAPQSVLTQPPSVSGAPGQRVTISCSGSRSNIGSNTVKWYQQLPGTAPKLLIYYNDQRPSGVPDRFSGSKSGTSASLAITGLQAEDEADYYCQSYDRYTHPALLFGTGTKVTVLGTVAAPSVFIFPPSDEQLKSGTASVVCLLNNFYPREAKVQWKVDNALQSGNSQESVTEQDSKDSTYSLSSTLTLSKADYEKHKVYACEVTHQGLSSPVTKSFNRGEC
**Q.** What does the source list for B5?
**A.** Potency (IC50), IL-12-induced IFN-γ production by PHA blast cells [12]: 0.366 nM; Potency (IC50), KG-1 bioassay (IFN-γ production) [13]: 0.04 nM

B6: murine anti-hIL-1β mAb 13F5.G5 (antibody, V domains shown)
VH: QVQLQQSGAELVRPGSSVKISCKASGYAFSSYWMNWVKQRPGQGLEWIGQIYPGDGDTNYNGKFKGKATLTADKSSSTSYMQLSGLTSEDSAMYFCVRFPTGNDYYAMDYWGQGTSVTVSS
VL: NIVLTQSPASLAVSLGQRATISCRASESVDSYGNSYMHWYQQKPGQPPKLLIYLASNLESGVPARFSGSGSRTDFTLTIDPVEADDAATYYCQQNNEDPFTFGSGTKLEIKR
**Q.** Which results are given for B6?
**A.** IC50, inhibition of IL-8 production by MRC-5 cells [11]: 0.6 nM; Potency (IC50), MRC-5 bioassay [9]: 0.6 nM

B7: DVD1812LL (anti-IL12/IL18 DVD-Ig) (bispecific antibody, human IgG1, kappa)
heavy: not shown
light: EIVMTQSPATLSVSPGERATLSCRASESISSNLAWYQQKPGQAPRLFIYTASTRATDIPARFSGSGSGTEFTLTISSLQSEDFAVYYCQQYNNWPSITFGQGTRLEIKRTVAAPSVFIFPPQSVLTQPPSVSGAPGQRVTISCSGSRSNIGSNTVKWYQQLPGTAPKLLIYYNDQRPSGVPDRFSGSKSGTSASLAITGLQAEDEADYYCQSYDRYTHPALLFGTGTKVTVLGTVAAPSVFIFPPSDEQLKSGTASVVCLLNNFYPREAKVQWKVDNALQSGNSQESVTEQDSKDSTYSLSSTLTLSKADYEKHKVYACEVTHQGLSSPVTKSFNRGEC
**Q.** Which “Potency (IC50), IL-12-induced IFN-γ production by PHA blast cells” value [12] does the source give for B7 here?
**A.** 0.118 nM

**Q.** What about the “Potency (IC50), KG-1 bioassay (IFN-γ production)” value [13] of the same binder?
**A.** 0.078 nM

B8: mouse anti-mouse IL-1α mAb 9H10 (antibody, V domains shown)
VH: QVILKESGPGILQPSQTLSLTCSFSGFSLSTYGTAVNWIRQPSGKGLEWLAQIGSDDRKLYNPFLKSRITLSEDTSNSQVFLKITSVDTEDSATYYCANGVMEYWGLGTSVTVSS
VL: SIVMTQTPKFLLVSAGDRVTITCKASQSVNHDVAWYQQMPGQSPKLLIYFASNRYTGVPDRFTGSGYGTDFTFTISTVQAEDLAVYFCQQDYSSPYTFGGGTKLEIKR
**Q.** How did the “IC50, in vitro potency (assay not described)” value (shortened to “IC50 … (assay not described)”) [14] turn out when B8 was run?
**A.** 0.2 nM

B9: ABT325 (anti-human IL-18 mAb) (antibody, V domains shown)
VH: EVQLVQSGTEVKKPGESLKISCKGSGYTVTSYWIGWVRQMPGKGLEWMGFIYPGDSETRYSPTFQGQVTISADKSFNTAFLQWSSLKASDTAMYYCARVGSGWYPYTFDIWGQGTMVTVSS
VL: not shown
**Q.** Which “IC50, KG-1 bioassay (IFN-γ production)” value [13] does the source give for B9 here?
**A.** 0.3 nM

**Q.** What about the “Potency (IC50), KG-1 bioassay (IL-18)” value [15] of the same binder?
**A.** 0.0687 nM

B10: mIL-1α/β DVD-Ig (bispecific antibody, mouse IgG2a, kappa)
heavy: EVQLQQSGPELVKPGTSVKMSCKTSGYTFTSYVMHWVKQKPGQGLEWIGYIIPYNDNTKYNEKFKGKATLTSDKSSSTAYMELSSLTSEDSAVYYCARRNEYYGSSFFDYWGQGTTLTVSSAKTTAPSVYPLAPQVILKESGPGILQPSQTLSLTCSFSGFSLSTYGTAVNWIRQPSGKGLEWLAQIGSDDRKLYNPFLKSRITLSEDTSNSQVFLKITSVDTEDSATYYCANGVMEYWGLGTSVTVSSAKTTAPSVYPLAPVCGDTTGSSVTLGCLVKGYFPEPVTLTWNSGSLSSGVHTFPAVLQSDLYTLSSSVTVTSSTWPSQSITCNVAHPASSTKVDKKIEPRGPTIKPCPPCKCPAPNLLGGPSVFIFPPKIKDVLMISLSPIVTCVVVDVSEDDPDVQISWFVNNVEVHTAQTQTHREDYNSTLRVVSALPIQHQDWMSGKEFKCKVNNKDLPAPIERTISKPKGSVRAPQVYVLPPPEEEMTKKQVTLTCMVTDFMPEDIYVEWTNNGKTELNYKNTEPVLDSDGSYFMYSKLRVEKKNWVERNSYSCSVVHEGLHNHHTTKSFSRTPGK
light: DIQMTQSPASLSASVGETVTITCRGSGILHNYLVWYQQKQGKSPQLLVYSAKILADGVPSRFSGSGSGTQYSLKINSLQPEDFGSYYCQHFWSTPFTFGSGTKLEIKRADAAPTVSIFPPSIVMTQTPKFLLVSAGDRVTITCKASQSVNHDVAWYQQMPGQSPKLLIYFASNRYTGVPDRFTGSGYGTDFTFTISTVQAEDLAVYFCQQDYSSPYTFGGGTKLEIKRADAAPTVSIFPPSSEQLTSGGASVVCFLNNFYPKDINVKWKIDGSERQNGVLNSWTDQDSKDSTYSMSSTLTLTKDEYERHNSYTCEATHKTSTSPIVKSFNRNEC
**Q.** Which “IC50 … (assay not described)” value [16] does the source give for B10 here?
**A.** 0.8 nM

**Q.** And the “IC50 … (assay not described)” value [14]?
**A.** 2 nM

B11: mouse anti-mouse IL-1β mAb 10G11 (antibody, V domains shown)
VH: EVQLQQSGPELVKPGTSVKMSCKTSGYTFTSYVMHWVKQKPGQGLEWIGYIIPYNDNTKYNEKFKGKATLTSDKSSSTAYMELSSLTSEDSAVYYCARRNEYYGSSFFDYWGQGTTLTVSS
VL: DIQMTQSPASLSASVGETVTITCRGSGILHNYLVWYQQKQGKSPQLLVYSAKILADGVPSRFSGSGSGTQYSLKINSLQPEDFGSYYCQHFWSTPFTFGSGTKLEIKR
**Q.** With B11 as the binder, how does the “IC50 … (assay not described)” value [16] read?
**A.** 0.37 nM
